Measured values taken from the supplement of paper PMC9170038.

Test system: MS2 coat protein
Test: apparent KD of MS2 coat protein; designed switch direction (-1 OFF switch, 1 ON switch): 1; higher = weaker reporter binding
Summary of the method: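 RNA switches sharing common flanks were transcribed by stalled E. coli RNA polymerase on Illumina chips. A doubling series of SNAP-549-labelled MS2 coat protein, from 0.7 or 1.5 nM to 3 µM, was applied in Tris-HCl pH 7.5 buffer with KCl, MgCl2, BSA, DTT, tRNA and Tween-20. Each step lasted 0.8–1.5 h at the bottom of the series and 10–20 min at the top. Normalised cluster fluorescence was curve-fitted, giving apparent KD as the per-design median over clusters.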

[1] = input ligand: microRNA oligo, concentration not stated
[2] = Eterna round: R95, input ligand: FMN 200 uM
[3] = Eterna round: R95, input ligand: microRNA oligo, concentration not stated
[4] = Eterna round: R95, input ligand: none

## GCUCGAUGAAAGUCCUACAUGAGGAUCACCCAUGUACGUGGGCAGGAUAUCUACAUGCAGAAUGUAGAGAAGGGCCCGUCGAGC [SameState NG3 #58] (Eterna round: R96, puzzle: Same State NG 3)
Input ligand: FMN 200 uM
  apparent KD of MS2 coat protein: 15.1 nM
[1]
  apparent KD of MS2 coat protein: 16.5 nM
Input ligand: none
  apparent KD of MS2 coat protein: 17.4 nM

## UCUUGGUUUUUGCUCGUUUUUUGUGUUGAACAUGAGGAUCACCCAUGUAUUGUACGGUCCGAUUUGAUAAUGGUCCA [JMF 41] (puzzle: Sensor for hsa-mir-208a)
[2]
  apparent KD of MS2 coat protein: 36.3 nM
[3]
  apparent KD of MS2 coat protein: 19.2 nM
[4]
  apparent KD of MS2 coat protein: 37.4 nM

## CACAUGAGGAUCACCCAUGUGAGGCGGCAAUAAAACCGCGCACAGGAUAUAGCGCUAUAAAUGCACUAGAAGGGUGAUUAGAAC [Zabeceis] (Eterna round: R96, puzzle: Same State NG 3)
Input ligand: FMN 200 uM
  apparent KD of MS2 coat protein: 1680 nM
[1]
  apparent KD of MS2 coat protein: 69.6 nM
Input ligand: none
  apparent KD of MS2 coat protein: 36.4 nM

## AGCUAUCGAAAACGAUAGCAAAAGCAUGUACAUGAGGAUCACCCAUGUUAUGUACAAGCUUUUUGCUCGUCUUAAAA [Zipper 23 - 11] (puzzle: Sensor for hsa-mir-208a)
[2]
  apparent KD of MS2 coat protein: 326 nM
[3]
  apparent KD of MS2 coat protein: 12 nM
[4]
  apparent KD of MS2 coat protein: 308 nM

## CCGAGUGGCGUACAGGAUAUGUUGCGUGGAACAUGAGGAUCACCCAUGUAUUUGCUCCUGCAUACGCAGAAGGGUGCGUCCUGGG [Estedibe] (Eterna round: R96, puzzle: Same State 2)
Input ligand: FMN 200 uM
  apparent KD of MS2 coat protein: 16 nM
[1]
  apparent KD of MS2 coat protein: 24.1 nM
Input ligand: none
  apparent KD of MS2 coat protein: 29.3 nM

## GGUCCAGCUUUUGCUGGUCCUUCGCUUGCACAUGAGGAUCACCCAUGUCGUGUACAUGCUUCCUGCCCGUCUUUUUU [Photon Torp-17] (puzzle: Sensor for hsa-mir-208a)
[2]
  apparent KD of MS2 coat protein: 34.4 nM
[3]
  apparent KD of MS2 coat protein: 15.5 nM
[4]
  apparent KD of MS2 coat protein: 39.1 nM

## GUGGUGUAGAUACAGGAUAUGUUGCUCGUAACAUGAGGAUCACCCAUGUAUCUAUGAGAUUAAAUGCAGAAGGGUGCACACCACG [Maerveen] (Eterna round: R96, puzzle: Same State 2)
Input ligand: FMN 200 uM
  apparent KD of MS2 coat protein: 22 nM
[1]
  apparent KD of MS2 coat protein: 220 nM
Input ligand: none
  apparent KD of MS2 coat protein: 358 nM

## AAUUAAGAUCAAGGAUAUCACGUCGAAUAGACGUGAGAAGGUGAUCCAUACAUGAGGAUCACCCAUGUAUAACAUGAAUUAAUU [SSNG1/8-B1] (Eterna round: R96, puzzle: Same State NG 1)
[1]
  apparent KD of MS2 coat protein: 607 nM

## UUUAUAUUCAGAGGAUAUUAAAGUAGUAUAAUAUAAGAAGGCUGUUUGUUUUGUAAAUUUAUUCUACAUGAGGAUCACCCAUGU [JR_SSNG1_Sub086] (Eterna round: R96, puzzle: Same State NG 1)
[1]
  apparent KD of MS2 coat protein: 14.5 nM

## UUCUAACAUGAGGAUCACCCAUGUCAUAUGACAUGAGGAUAUGUACAGACUUCGGUCUGUACAGAAGGCAUGUUAG [SS1 - 1011 Omei Mod 7] (puzzle: Same State 1)
[2]
  apparent KD of MS2 coat protein: 31.6 nM
[3]
  apparent KD of MS2 coat protein: 10.7 nM
[4]
  apparent KD of MS2 coat protein: 20.5 nM

## CCAUAGUACAAUUUAGAUCUACAUGAGGAUCACCCAUGUACUGAGGAUAUCAGCUCGAAUAGAGCUGAGAAGGCAGAAGUACUU [SSNG3/6-A1] (Eterna round: R96, puzzle: Same State NG 3)
Input ligand: FMN 200 uM
  apparent KD of MS2 coat protein: 22.6 nM
[1]
  apparent KD of MS2 coat protein: 101 nM
Input ligand: none
  apparent KD of MS2 coat protein: 83.6 nM

## CCGAUGACAGGACAGGAUAUGACUGUCGUCACAUGAGGAUCACCCAUGUCCCGGCAAUGCCACCGUUAGAAGGGUCCUAUCUCGG [Arxeina] (puzzle: Same State 2)
[2]
  apparent KD of MS2 coat protein: 16.7 nM
[3]
  apparent KD of MS2 coat protein: 16.3 nM
[4]
  apparent KD of MS2 coat protein: 18.2 nM

## AUAUAACAUGAGGAUCACCCAUGUCAACAAAGUCGAGGAUAUGGGCAAAUAAAAUAAGAACCAGAAGGCGAAUAAU [salish99_ss1_r3_047] (puzzle: Same State 1)
[2]
  apparent KD of MS2 coat protein: 42.2 nM
[3]
  apparent KD of MS2 coat protein: 462 nM
[4]
  apparent KD of MS2 coat protein: 693 nM

## GCCGGCUGGUGAGGAUAUGGCACCUUAUUGGUGCCAGAAGGCAUGUCAAUUGACAUGAGGAUCACCCAUGUAUUAUCGUUGGCG [salish99_SSNG1_r04_607] (Eterna round: R96, puzzle: Same State NG 1)
Input ligand: FMN 200 uM
  apparent KD of MS2 coat protein: 725 nM
[1]
  apparent KD of MS2 coat protein: 325 nM
Input ligand: none
  apparent KD of MS2 coat protein: 370 nM

## UACAUACGCGGAGGAUAUGGGCGAGGCGCGGAGGUCCGCGCCAAAACAUGAGGAUCACCCAUGUCCCAGAAGGCCGCACAAACU [Atusso] (Eterna round: R96, puzzle: Same State NG 2)
Input ligand: FMN 200 uM
  apparent KD of MS2 coat protein: 15.1 nM
[1]
  apparent KD of MS2 coat protein: 66.4 nM
Input ligand: none
  apparent KD of MS2 coat protein: 86.6 nM

## GAGCCAGUCCGAGGAUAUUCAUACAUGAGGAUCACCCAUGUAGGCUCAGAAAAGAAAGAGCCUUGGGAGAAGGCGGACUGGCUC [Xeonanisa<<6] (Eterna round: R96, puzzle: Same State NG 2)
Input ligand: FMN 200 uM
  apparent KD of MS2 coat protein: 6.96 nM
[1]
  apparent KD of MS2 coat protein: 6.06 nM
Input ligand: none
  apparent KD of MS2 coat protein: 10.9 nM

## AGUCCAGCGAAAGCUGGACAAAAGCAUGUACAUGAGGAUCACCCAUGUUCAUGUACAAGUUUUUUGCUCGUCUUAAA [JL mod - D95 - 13] (puzzle: Sensor for hsa-mir-208a)
[2]
  apparent KD of MS2 coat protein: 33.7 nM
[3]
  apparent KD of MS2 coat protein: 10.4 nM
[4]
  apparent KD of MS2 coat protein: 32 nM

## GCGGAAACUCACAUGAGGAUCACCCAUGUUCCGGAAACGGCACAGGAUAUCUGUCCGAAAAGGUCAGAGAAGGGUGUAAUCCGC [Fiskers NG3ss - 90] (Eterna round: R96, puzzle: Same State NG 3)
Input ligand: FMN 200 uM
  apparent KD of MS2 coat protein: 572 nM
[1]
  apparent KD of MS2 coat protein: 101 nM
Input ligand: none
  apparent KD of MS2 coat protein: 79.6 nM

## AGAAGACAUGAGGAUCACCCAUGUACAUAAUGAGGAGAAUGGGAGGAUAUGCAGAGAGAGAGGGAGCAGAAGGUCCAGUAUGAA [Default title] (Eterna round: R96, puzzle: Same State NG 3)
Input ligand: FMN 200 uM
  apparent KD of MS2 coat protein: 44.4 nM
[1]
  apparent KD of MS2 coat protein: 51.6 nM
Input ligand: none
  apparent KD of MS2 coat protein: 105 nM

## GUUACAUGAGGAUCACCCAUGUAUGUGUGGGAGUAAGUGUCUUAGGAUAUCUAUCAUUUUAUUUAAGAGAAGGAAGAUUGUUGU [JMF's solution 93] (Eterna round: R96, puzzle: Same State NG 3)
Input ligand: FMN 200 uM
  apparent KD of MS2 coat protein: 121 nM
[1]
  apparent KD of MS2 coat protein: 77.4 nM
Input ligand: none
  apparent KD of MS2 coat protein: 111 nM

## GGUAGGUUACUACCAUACAUGAGGAUCACCCAUGUAAAUGGGAAGGAUAUGGUACCUAUUUGGUACCAGAAGGUCCAAAUAAUU [Mat - Same State NG 3 - JL Mod - D96] (Eterna round: R96, puzzle: Same State NG 3)
Input ligand: FMN 200 uM
  apparent KD of MS2 coat protein: 156 nM
[1]
  apparent KD of MS2 coat protein: 645 nM
Input ligand: none
  apparent KD of MS2 coat protein: 1170 nM
